How the values were obtained:
[1] = biological target: recombinant soluble TLR4 extracellular domain (amino acids 24-634), FLAG-tagged (UniProt O00206); assay: co-expression with TLR4ECD, harvested medium incubated with [3H]LOS:sCD14, gel filtration
[2] = biological target: T1, recombinant soluble TLR4 extracellular domain (amino acids 24-634), FLAG-tagged (UniProt O00206 24-634); assay: culture medium of HEK293T cells secreting TLR4ECD spiked with [3H]LOS:sCD14, Sephacryl S200 gel filtration
T1 construct: range 24-634; Used as concentrated conditioned medium of HEK293T cells, not purified; also called TLR4ECD; FLAG-TLR4ECD; not shown: N-terminal FLAG tag from pFLAG-CMV
T1 sequence (O00206 24-634): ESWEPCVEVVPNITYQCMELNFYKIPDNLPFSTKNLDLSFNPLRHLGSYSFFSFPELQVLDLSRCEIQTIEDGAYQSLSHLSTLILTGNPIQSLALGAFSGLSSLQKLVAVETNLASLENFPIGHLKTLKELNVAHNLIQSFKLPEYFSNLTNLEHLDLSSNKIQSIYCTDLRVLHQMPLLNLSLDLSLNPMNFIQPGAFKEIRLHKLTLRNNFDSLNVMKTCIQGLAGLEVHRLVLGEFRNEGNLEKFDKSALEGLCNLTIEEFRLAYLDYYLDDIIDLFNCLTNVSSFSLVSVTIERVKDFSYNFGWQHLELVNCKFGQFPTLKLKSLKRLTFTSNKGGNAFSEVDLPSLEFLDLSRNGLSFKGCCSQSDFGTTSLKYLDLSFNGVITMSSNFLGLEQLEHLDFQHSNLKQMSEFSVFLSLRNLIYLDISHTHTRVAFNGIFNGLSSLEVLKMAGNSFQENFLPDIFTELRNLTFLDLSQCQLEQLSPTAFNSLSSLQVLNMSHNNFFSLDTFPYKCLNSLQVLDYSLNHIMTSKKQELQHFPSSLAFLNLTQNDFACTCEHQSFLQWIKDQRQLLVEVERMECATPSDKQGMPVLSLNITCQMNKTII

[3] = biological target: T2, TLR4 stably expressed on HEK293 cells (HEK/TLR4) (UniProt O00206 24-839, limits assumed); assay: overnight incubation with HEK/TLR4 cells at 37 C, cell-associated radioactivity by liquid scintillation
T2 construct: whole, on cells; Cells from Eisai Research Institute (Yang et al., 2000) or Invivogen; also called HEK293/TLR4; cellular TLR4
T2 sequence (O00206 24-839 limits assumed): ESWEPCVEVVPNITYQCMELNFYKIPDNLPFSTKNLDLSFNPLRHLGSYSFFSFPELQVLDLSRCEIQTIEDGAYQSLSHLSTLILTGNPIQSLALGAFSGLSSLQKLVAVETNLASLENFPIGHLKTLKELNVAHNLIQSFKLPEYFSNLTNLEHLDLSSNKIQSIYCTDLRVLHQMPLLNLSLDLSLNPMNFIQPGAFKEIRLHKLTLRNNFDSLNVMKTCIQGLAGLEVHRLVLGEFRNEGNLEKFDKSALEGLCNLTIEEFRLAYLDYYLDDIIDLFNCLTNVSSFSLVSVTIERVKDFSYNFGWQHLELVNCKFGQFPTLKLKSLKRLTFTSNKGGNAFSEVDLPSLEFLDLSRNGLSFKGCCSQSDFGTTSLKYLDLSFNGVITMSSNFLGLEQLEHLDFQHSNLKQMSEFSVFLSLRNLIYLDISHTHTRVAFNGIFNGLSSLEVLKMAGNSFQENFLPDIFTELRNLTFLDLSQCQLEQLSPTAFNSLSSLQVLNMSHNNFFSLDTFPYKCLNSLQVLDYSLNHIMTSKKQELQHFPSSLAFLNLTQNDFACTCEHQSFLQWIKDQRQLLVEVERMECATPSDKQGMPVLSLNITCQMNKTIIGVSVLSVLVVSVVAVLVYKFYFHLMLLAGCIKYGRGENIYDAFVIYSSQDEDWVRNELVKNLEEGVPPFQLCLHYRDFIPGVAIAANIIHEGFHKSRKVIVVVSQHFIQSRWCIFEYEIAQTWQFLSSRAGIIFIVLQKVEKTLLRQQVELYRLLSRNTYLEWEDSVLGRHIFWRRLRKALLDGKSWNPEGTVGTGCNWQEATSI

[4] = biological target: T1, recombinant soluble TLR4 extracellular …; assay: saturation binding of [3H]LOS:MD-2 (25,000 cpm/pmol) to soluble TLR4ECD, complex resolved by gel filtration
[5] = biological target: T1, recombinant soluble TLR4 extracellular …; assay: [3H]LOS:MD-2 F126A incubated 30 min at 37 C with concentrated TLR4ECD medium, Mr ~190,000 complex by gel filtration, Scatchard analysis

Chain of recombinant soluble TLR4 extracellular domain (amino acids 24-634), FLAG-tagged (UniProt O00206) (O00206 24-634): as the sequence (O00206 24-634) above

Question: For “human MD-2 Y131A.K132A double mutant (from UniProt Q9Y6Y9 19-160)”, which reduction of the yield of ([^3H]LOS:MD-2/TLR4ECD)2 against the single mutants [1] is on record?
Answer: 50%

B1: monomeric complex of LOS with soluble CD14 (other)
chain: TTPEPCELDDEDFRCVCNFSEPQPDWSEAFQCVSAVEVEIHAGGLNLEPFLKRVDADADPRQYADTVKALRVRRLTVGAAQVPAQLLVGALRVLAYSRLKELTLEDLKITGTMPPLPLEATGLALSSLRLRNVSWATGRSWLAELQQWLKPGLKVLSIAQAHSPAFSCEQVRAFPALTSLDLSDNPGLGERGLMAALCPHKFPAIQNLALRNTGMETPTGVCAALAAAGVQPHSLDLSHNSLRATVNPSAPRCMWSSALNSLNLSFAGLEQVPKGLPAKLRVLDLSCNRLNRAPQPDELPEVDNLTLDGNPFLVPGTALPHEGSMNSGVVPACARSTLSVGVSGTLVL
notes: Mr ~60,000; also called LOS:sCD14; [^3H]LOS:sCD14
Question: Does B1 bind [2]?
Answer: no binding (tested: 1 nM [^3H]LOS:sCD14)

Question: Does B1 bind [3]?
Answer: no binding (tested: 0.75 ng/ml ^3H-LOS)

B2: monomeric complex of wild-type (hexa-acylated) N. meningitidis LOS with wild-type human MD-2-His6 (ligand)
chain: QKQYWVCNSSDASISYTYCDKMQYPISINVNPCIELKRSKGLLHIFYIPRRDLKQLYFNLYITVNTMNLPKRKEVICRGSDDDYSFCRALKGETVNTTISFSFKGIKFSKGKYKCVVEAISGSPEEMLFCLEFVILHQPNSNHHHHHH
notes: mature; Mr ~25,000; Radiolabel (3H or 14C) is on the LOS; also called [^3H]LOS:MD-2; [^3H]LOS:MD-2-His6
Question: How did the Kd [4] turn out when B2 was run?
Answer: < 0.3 nM

B3: monomeric complex of wild-type LOS with human MD-2 F126A (ligand)
chain: QKQYWVCNSSDASISYTYCDKMQYPISINVNPCIELKRSKGLLHIFYIPRRDLKQLYFNLYITVNTMNLPKRKEVICRGSDDDYSFCRALKGETVNTTISFSFKGIKASKGKYKCVVEAISGSPEEMLFCLEFVILHQPNSN
notes: mature; Made in HEK293T cells (MD-2-FLAG-His) for analytical work and in High Five insect cells for preparative amounts; also called LOS:MD-2^F126A; [^3H]LOS:MD-2^F126A; not shown: C-terminal tag: pEF-BOS-MD-2^F126A-FLAG-His insert moved into pBAC11; which tag
Question: For B3, which Kd [5] is on record?
Answer: ~0.2 nM

From patent US20080125365A1 (UNIVERSITY OF IOWA RESEARCH FOUNDATION, published 2008)
